Square brackets hold non-standard residues; d marks the D form. pGlu = O=C1CC[C@@H](C(=O)O)N1
Tests used:
[1] = target: NT receptor NTSR1 (high affinity NTSR1 receptor) on HT29 cells (human) (UniProt P30989); assay: competition with [3H]-NT on HT29 cells expressing NTSR1
[2] = target: T1, NT receptor NTSR1 (high affinity NTSR1 receptor) on HT29 cells (human, UniProt P30989 1-418); assay: as above
T1 construct: whole, on cells; also called neurotensin receptor type 1; NTR1
T1 sequence (P30989 whole entry): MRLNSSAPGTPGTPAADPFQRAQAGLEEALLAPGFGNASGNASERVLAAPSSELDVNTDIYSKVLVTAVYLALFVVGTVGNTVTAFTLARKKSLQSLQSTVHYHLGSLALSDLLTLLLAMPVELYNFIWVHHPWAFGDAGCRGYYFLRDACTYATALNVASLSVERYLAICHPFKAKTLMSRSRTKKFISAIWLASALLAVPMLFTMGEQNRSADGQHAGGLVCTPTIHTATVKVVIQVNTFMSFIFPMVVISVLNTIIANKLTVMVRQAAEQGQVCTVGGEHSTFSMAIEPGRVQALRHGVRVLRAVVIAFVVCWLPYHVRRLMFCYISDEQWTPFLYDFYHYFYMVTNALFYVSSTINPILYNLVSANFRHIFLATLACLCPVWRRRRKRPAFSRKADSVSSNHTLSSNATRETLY

Chain of NT receptor NTSR1 (high affinity NTSR1 receptor) on HT29 cells (human) (P30989 whole entry): as above

Molecule: Ac-Lys-[D-Tyr^11]NT(8-13) (Ac-KRRPD-YIL-OH) (peptide)
- IC50 [1]: 5390 nM
- fold weaker binding than native NT [1]: > 1000 fold

B1: Ac-LysNT(8-13) (peptide)
peptide: Ac-KRRPYIL-OH
notes: Structure printed only as drawing CHEM-US-00004; The chain is built from the name, and Mw 987.20 fits Ac-KRRPYIL
- IC50 [2]: 1 nM

B2: pGlu-LysNT(8-13) (peptide)
peptide: [pGlu]KRRPYIL-OH
SMILES: CC[C@H](C)[C@H](NC(=O)[C@H](Cc1ccc(O)cc1)NC(=O)[C@@H]1CCCN1C(=O)[C@H](CCCNC(=N)N)NC(=O)[C@H](CCCNC(=N)N)NC(=O)[C@H](CCCCN)NC(=O)[C@@H]1CCC(=O)N1)C(=O)N[C@@H](CC(C)C)C(=O)O
notes: Structure printed only as drawing CHEM-US-00006; The chain is built from the name, and Mw 1056.26 fits pGlu-KRRPYIL; also called pE-Lys-NT(8-13); pGlu-NT(8-13)
- IC50 [2]: 1.3 nM

— patent US20100256055A1 (ANGIOCHEM, published 2010)
